Data: article PMC3158298

Molecular target: CC-Aβ_(1-40)E22Δ
Test: split tetra-Cys FlAsH fluorescence

FlAsH fluorescence intensity relative to CC-Aβ (1-40): 1.5 fold
Substance: CC-Aβ_(1-40)E22Δ (peptide)
